Results published in the supplement of paper PMC9112550, “Optimization of the antimicrobial peptide Bac7 by deep mutational scanning” (BMC Biology, 2022).

Test system: Escherichia coli TOP10
Experiment: shrunken log2 fold change of peptide-encoding DNA abundance (4.5 h post-induction vs induction); higher = less antimicrobial activity (less host growth inhibition)
Settings: time post-induction: 4.5 h; library: site-saturation at positions 5, 18, 19, 20
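Further: peptides expressed intracellularly from a pBAD plasmid library in pooled LB shake-flask culture, induced with 0.3% L-arabinose, DNA abundance read by NGS, three biological replicates, DESeq2 with apeglm shrinkage.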

Sequence | shrunken log2 fold change
RRIRNRPPRLPRPRPRPQPFPRP | -0.0278
RRIRNRPPRLPRPRPRPQTRPRP | 0.0246
RRIRNRPPRLPRPRPRPQVGPRP | 0.00312
RRIRNRPPRLPRPRPRPQVHPRP | -0.161
RRIRNRPPRLPRPRPRPQVIPRP | -0.000921
RRIRNRPPRLPRPRPRPQWGPRP | -0.0138
RRIRNRPPRLPRPRPRPRCSPRP | 0.019
RRIRNRPPRLPRPRPRPRCTPRP | -0.263
RRIRNRPPRLPRPRPRPREHPRP | 0.0287
RRIRNRPPRLPRPRPRPRFQPRP | 0.0932
RRIRNRPPRLPRPRPRPRGFPRP | 0.443
RRIRNRPPRLPRPRPRPRHGPRP | -0.0314
RRIRNRPPRLPRPRPRPRIHPRP | -0.184
RRIRNRPPRLPRPRPRPRIMPRP | -0.337
RRIRNRPPRLPRPRPRPRIRPRP | -0.0657
RRIRNRPPRLPRPRPRPRLCPRP | 0.121
RRIRNRPPRLPRPRPRPRLHPRP | 0.0921
RRIRNRPPRLPRPRPRPRLIPRP | 0.0319
RRIRNRPPRLPRPRPRPRLMPRP | -0.142
RRIRNRPPRLPRPRPRPRLYPRP | -0.142
RRIRNRPPRLPRPRPRPRPKPRP | 0.719
RRIRNRPPRLPRPRPRPRQRPRP | 0.215
RRIRNRPPRLPRPRPRPRRGPRP | 0.78
RRIRNRPPRLPRPRPRPRRTPRP | 0.135
RRIRNRPPRLPRPRPRPRSIPRP | -0.288

Sequence | shrunken log2 fold change
RRIRNRPPRLPRPRPRPRTCPRP | -0.257
RRIRNRPPRLPRPRPRPRVLPRP | 0.0234
RRIRNRPPRLPRPRPRPRWCPRP | 0.169
RRIRNRPPRLPRPRPRPSAKPRP | -0.0395
RRIRNRPPRLPRPRPRPSASPRP | -0.2
RRIRNRPPRLPRPRPRPSCHPRP | 1.83
RRIRNRPPRLPRPRPRPSCRPRP | 0.0168
RRIRNRPPRLPRPRPRPSDAPRP | 0.0594
RRIRNRPPRLPRPRPRPSDPPRP | -0.192
RRIRNRPPRLPRPRPRPSDTPRP | -0.00711
RRIRNRPPRLPRPRPRPSEFPRP | -0.109
RRIRNRPPRLPRPRPRPSEGPRP | -0.0276
RRIRNRPPRLPRPRPRPSEHPRP | -0.159
RRIRNRPPRLPRPRPRPSGEPRP | 0.155
RRIRNRPPRLPRPRPRPSGQPRP | -0.188
RRIRNRPPRLPRPRPRPSHFPRP | -0.647
RRIRNRPPRLPRPRPRPSHPPRP | 0.186
RRIRNRPPRLPRPRPRPSHTPRP | -0.412
RRIRNRPPRLPRPRPRPSIPPRP | -0.134
RRIRNRPPRLPRPRPRPSKCPRP | -0.126
RRIRNRPPRLPRPRPRPSLHPRP | -0.621
RRIRNRPPRLPRPRPRPSLWPRP | 0.159
RRIRNRPPRLPRPRPRPSLYPRP | -0.0524
RRIRNRPPRLPRPRPRPSNGPRP | -0.12
RRIRNRPPRLPRPRPRPSPEPRP | -0.123

Sequence | shrunken log2 fold change
RRIRNRPPRLPRPRPRPSPFPRP | -0.287
RRIRNRPPRLPRPRPRPSRSPRP | -0.076
RRIRNRPPRLPRPRPRPSSTPRP | -0.201
RRIRNRPPRLPRPRPRPSTKPRP | -0.0203
RRIRNRPPRLPRPRPRPSTNPRP | -0.337
RRIRNRPPRLPRPRPRPSVDPRP | -0.0699
RRIRNRPPRLPRPRPRPSWQPRP | -0.0148
RRIRNRPPRLPRPRPRPSYAPRP | -0.387
RRIRNRPPRLPRPRPRPSYQPRP | -0.75
RRIRNRPPRLPRPRPRPSYRPRP | -0.102
RRIRNRPPRLPRPRPRPTDHPRP | -0.383
RRIRNRPPRLPRPRPRPTDIPRP | -0.296
RRIRNRPPRLPRPRPRPTFAPRP | 0.343
RRIRNRPPRLPRPRPRPTGMPRP | 0.236
RRIRNRPPRLPRPRPRPTHTPRP | -0.191
RRIRNRPPRLPRPRPRPTIAPRP | -0.277
RRIRNRPPRLPRPRPRPTKEPRP | -0.0307
RRIRNRPPRLPRPRPRPTKIPRP | -0.245
RRIRNRPPRLPRPRPRPTKVPRP | -0.153
RRIRNRPPRLPRPRPRPTLMPRP | 0.0843
RRIRNRPPRLPRPRPRPTMYPRP | -0.486
RRIRNRPPRLPRPRPRPTNRPRP | -0.00917
RRIRNRPPRLPRPRPRPTPQPRP | 0.232
RRIRNRPPRLPRPRPRPTRFPRP | 0.3
RRIRNRPPRLPRPRPRPTTYPRP | -0.228

Sequence | shrunken log2 fold change
RRIRNRPPRLPRPRPRPTVPPRP | -0.233
RRIRNRPPRLPRPRPRPTWRPRP | 0.421
RRIRNRPPRLPRPRPRPTYAPRP | 0.027
RRIRNRPPRLPRPRPRPTYGPRP | -0.0506
RRIRNRPPRLPRPRPRPVAIPRP | -0.507
RRIRNRPPRLPRPRPRPVCGPRP | 0.0972
RRIRNRPPRLPRPRPRPVCMPRP | -0.0349
RRIRNRPPRLPRPRPRPVKEPRP | -0.0182
RRIRNRPPRLPRPRPRPVMCPRP | -0.0207
RRIRNRPPRLPRPRPRPVMMPRP | -0.198
RRIRNRPPRLPRPRPRPVNVPRP | -0.304
RRIRNRPPRLPRPRPRPVPCPRP | -0.237
RRIRNRPPRLPRPRPRPVPHPRP | -0.0692
RRIRNRPPRLPRPRPRPVPIPRP | -0.0984
RRIRNRPPRLPRPRPRPVPVPRP | -0.0667
RRIRNRPPRLPRPRPRPVRGPRP | 0.649
RRIRNRPPRLPRPRPRPVRKPRP | 0.128
RRIRNRPPRLPRPRPRPVSDPRP | -0.192
RRIRNRPPRLPRPRPRPVSPPRP | -0.087
RRIRNRPPRLPRPRPRPVVAPRP | -0.0949
RRIRNRPPRLPRPRPRPVVMPRP | 0.00659
RRIRNRPPRLPRPRPRPVVVPRP | -0.11
RRIRNRPPRLPRPRPRPVWGPRP | 0.283
RRIRNRPPRLPRPRPRPVWIPRP | -0.111
RRIRNRPPRLPRPRPRPVWPPRP | 0.199

Sequence | shrunken log2 fold change
RRIRNRPPRLPRPRPRPWAIPRP | -0.179
RRIRNRPPRLPRPRPRPWCPPRP | -0.752
RRIRNRPPRLPRPRPRPWCSPRP | -0.535
RRIRNRPPRLPRPRPRPWDLPRP | 0.0191
RRIRNRPPRLPRPRPRPWDMPRP | -0.304
RRIRNRPPRLPRPRPRPWDPPRP | -0.00879
RRIRNRPPRLPRPRPRPWDYPRP | -0.0686
RRIRNRPPRLPRPRPRPWGDPRP | -0.0233
RRIRNRPPRLPRPRPRPWGGPRP | -0.113
RRIRNRPPRLPRPRPRPWGSPRP | -0.275
RRIRNRPPRLPRPRPRPWINPRP | -0.0185
RRIRNRPPRLPRPRPRPWIYPRP | -0.187
RRIRNRPPRLPRPRPRPWKDPRP | -0.00136
RRIRNRPPRLPRPRPRPWKEPRP | -0.59
RRIRNRPPRLPRPRPRPWKPPRP | 0.0219
RRIRNRPPRLPRPRPRPWLPPRP | -0.0828
RRIRNRPPRLPRPRPRPWLTPRP | -0.0905
RRIRNRPPRLPRPRPRPWLWPRP | 0.165
RRIRNRPPRLPRPRPRPWMTPRP | -0.189
RRIRNRPPRLPRPRPRPWQHPRP | 0.178
RRIRNRPPRLPRPRPRPWQRPRP | -0.0153
RRIRNRPPRLPRPRPRPWREPRP | 0.262
RRIRNRPPRLPRPRPRPWTEPRP | -0.249
RRIRNRPPRLPRPRPRPWVQPRP | 0.00853
RRIRNRPPRLPRPRPRPWWAPRP | -0.0446

Sequence | shrunken log2 fold change
RRIRNRPPRLPRPRPRPWWPPRP | -0.218
RRIRNRPPRLPRPRPRPWYMPRP | -0.911
RRIRNRPPRLPRPRPRPYAYPRP | -0.533
RRIRNRPPRLPRPRPRPYCWPRP | -0.425
RRIRNRPPRLPRPRPRPYCYPRP | -1.44
RRIRNRPPRLPRPRPRPYEYPRP | -0.675
RRIRNRPPRLPRPRPRPYGCPRP | -0.146
RRIRNRPPRLPRPRPRPYGHPRP | -0.256
RRIRNRPPRLPRPRPRPYGKPRP | -0.0718
RRIRNRPPRLPRPRPRPYIAPRP | -0.172
RRIRNRPPRLPRPRPRPYIDPRP | 0.0433
RRIRNRPPRLPRPRPRPYIYPRP | -0.514
RRIRNRPPRLPRPRPRPYKLPRP | -0.66
RRIRNRPPRLPRPRPRPYLNPRP | -0.487
RRIRNRPPRLPRPRPRPYNKPRP | -0.963
RRIRNRPPRLPRPRPRPYNMPRP | -0.0281
RRIRNRPPRLPRPRPRPYNYPRP | -0.067
RRIRNRPPRLPRPRPRPYPEPRP | -1.11
RRIRNRPPRLPRPRPRPYPSPRP | 0.0309
RRIRNRPPRLPRPRPRPYQRPRP | -0.0199
RRIRNRPPRLPRPRPRPYRGPRP | -0.0134
RRIRNRPPRLPRPRPRPYTQPRP | -0.798
RRIRNRPPRLPRPRPRPYWRPRP | -0.312
RRIRNRPPRLPRPRPRPYYEPRP | -0.793
RRIRPRPPRLPRPRPRPAADPRP | 0.282
